For this experiment, the target named is T1, Human NKp46 Fc tag (Acro Biosystems, NC1-H5257) (human, UniProt O76036 22-255).
T1 construct: bought; also called Fc-tagged human NKp46
Description: SPR Method 1 and/or 2. Here is the method:
The SPR analysis was run at 25° C. and a flow rate of 50 μl/min with 60 seconds association and 200-400 seconds dissociation time. Data were corrected for DMSO excluded volume effects. All data were double-referenced for blank injections and reference surface using standard processing procedures and data processing and kinetic fitting were performed using Scrubber software, version 2.0c (BioLogic Software). Data were fitted using simple 1:1 binding model allowing for mass transport effects where appropriate.
For analysis of peptide binding, a Biacore 8k+ instrument was used with a CM5 chip (Cytiva). All experiments were carried out at 25° C. Anti-human IgG (Fc) antibody (Cytiva) was immobilized on all flow cells by standard amine coupling chemistry. The running buffer was HBS-N(Cytiva, 10 mM HEPES, 0.15 M NaCl, pH 7.4) and the flow rate was 10 μL/min. The carboxymethyl dextran surface was activated with a 1:1 ratio of 0.4 M 1-ethyl-3-(3-dimethylaminopropyl) carbodiimide hydrochloride (EDC)/0.1 M N-hydroxy succinimide (NHS) (Cytiva) for 420s. […] Residual activated groups were blocked with a 420 s injection of 1 M ethanolamine (pH 8.5). The final surface density was 3000-5000 RU. Fc-tagged human NKp46 was diluted to 0.1 μM in HBS-N and was captured on flow cell 2 only of the sensor chip at a flow rate of 10 μL/min to 500-1000 RU. The buffer was then changed to PBS-P+(Cytiva) supplemented with 2% DMSO. […] The flow rate was 50 μL/min with 60 s association and 400 s dissociation. Data were corrected for DMSO volume exclusion effects. All data were double-referenced against blank injections and reference surface response using standard processing procedures. Data processing and kinetic fitting was performed using Biacore Insight Evaluation Software with Extended Screening and Characterization Extension (Cytiva). Data were fitted using steady state affinity 1:1 binding model to determine KD. Data were fitted using kinetic 1:1 binding model to determine kinetic constants where appropriate.

Numbered stars: 1 amine (or outer) side, 2 acyl side, 3 side chain; on linkers, the order of the positions; unused ones are H or OH. Bridge positions count the residues as written; N and C are the ends. Square brackets hold non-standard residues; d marks the D form. Ends that are not written are not given here. TATA = O=C(CC[*:1])N1CN(C(=O)CC[*:2])CN(C(=O)CC[*:3])C1; Trp(1-Me) = Cn1cc(C[C@H](N)C(=O)O)c2ccccc21; cisHyp = O=C(O)[C@@H]1C[C@H](O)CN1; Hyp = O=C(O)[C@@H]1C[C@@H](O)CN1; hArg = N=C(N)NCCCC[C@H](N)C(=O)O; tBuAla = CC(C)(C)C[C@H](N)C(=O)O; Cha = N[C@@H](CC1CCCCC1)C(=O)O; Agb = N=C(N)NCC[C@H](N)C(=O)O; Cba = N[C@@H](CC1CCC1)C(=O)O; Chg = N[C@H](C(=O)O)C1CCCCC1; Tle = CC(C)(C)[C@H](N)C(=O)O; NMeA = CN[C@@H](C)C(=O)O; Nle = CCCC[C@H](N)C(=O)O; Sar = CNCC(=O)O

Data on 27 molecules can be found in patent US20240108738A1 (Bicycle, published 2024).

The Kd is the constant that tells how readily two partners part at equilibrium.

T1 sequence (O76036 22-255 limits assumed): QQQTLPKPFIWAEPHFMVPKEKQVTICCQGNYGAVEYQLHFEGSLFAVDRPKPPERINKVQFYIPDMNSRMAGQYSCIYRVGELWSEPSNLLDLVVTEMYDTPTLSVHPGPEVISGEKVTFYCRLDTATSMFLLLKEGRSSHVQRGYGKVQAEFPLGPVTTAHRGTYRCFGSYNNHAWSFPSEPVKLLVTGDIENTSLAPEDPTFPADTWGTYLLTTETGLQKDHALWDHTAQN

In turn, ACN[tBuAla]QAPCMLTGKVCA-NH2 (linker 2-8-15 via TATA, scaffold TATA) [BCY18307] showed a Kd of 2110 nM.
In the case of ACDLTTHNCQWG[Chg]CA-NH2 (linker 2-9-14 via TATA, scaffold TATA) [BCY18291] it was 2850 nM.

B1: BCY18324 (peptide)
peptide: ACNLQAPCMLTG[Agb]VCA-NH2
modifications: linker 2-8-15 via TATA; N-terminus assumed
SMILES: CSCC[C@@H]1NC(=O)[C@@H]2CSCCC(=O)N3CN(CN(C3)C(=O)CCSC[C@@H](C(=O)N[C@@H](C)C(N)=O)NC(=O)[C@H](C(C)C)NC(=O)[C@H](CCNC(=N)N)NC(=O)CNC(=O)[C@H]([C@@H](C)O)NC(=O)[C@H](CC(C)C)NC1=O)C(=O)CCSC[C@H](NC(=O)[C@H](C)N)C(=O)N[C@@H](CC(N)=O)C(=O)N[C@@H](CC(C)C)C(=O)N[C@@H](CCC(N)=O)C(=O)N[C@@H](C)C(=O)N1CCC[C@H]1C(=O)N2
notes: scaffold TATA
With B1, the dissociation constant Kd is 1500 nM. This Kd is about 1.9-fold lower than that of the molecule before.
As for ACNLQAPC[Nle]LTGKVCA-NH2 (linker 2-8-15 via TATA, scaffold TATA) [BCY18314], the dissociation constant Kd was 3150 nM. Compared with the last molecule, the Kd is about 2.1-fold higher.
ACNLQA[Hyp]CMLTGKVCA-NH2 (linker 2-8-15 via TATA, scaffold TATA) [BCY18311] returned a dissociation constant Kd of 795 nM. Compared with the last molecule, the Kd is about 4-fold lower.

B2: BCY18326 (peptide)
peptide: ACNLQAPCMLTGK[Chg]CA-NH2
modifications: linker 2-8-15 via TATA; N-terminus assumed
SMILES: CSCC[C@@H]1NC(=O)[C@@H]2CSCCC(=O)N3CN(CN(C3)C(=O)CCSC[C@@H](C(=O)N[C@@H](C)C(N)=O)NC(=O)[C@H](C3CCCCC3)NC(=O)[C@H](CCCCN)NC(=O)CNC(=O)[C@H]([C@@H](C)O)NC(=O)[C@H](CC(C)C)NC1=O)C(=O)CCSC[C@H](NC(=O)[C@H](C)N)C(=O)N[C@@H](CC(N)=O)C(=O)N[C@@H](CC(C)C)C(=O)N[C@@H](CCC(N)=O)C(=O)N[C@@H](C)C(=O)N1CCC[C@H]1C(=O)N2
notes: scaffold TATA
In turn, B2 registered an equilibrium dissociation constant (Kd) of 2780 nM.
ACNLQAPCM[Cba]TGKVCA-NH2 (linker 2-8-15 via TATA, scaffold TATA) [BCY18319] registered a Kd of 991 nM.
Ac-CNLQAPCMLTGKVC-NH2 (linker 1-7-14 via TATA (inferred), scaffold TATA) [BCY18293] showed a dissociation constant (Kd) of 3380 nM.

B3: BCY18309 (peptide)
peptide: ACNLQA[Sar]CMLTGKVCA-NH2
modifications: linker 2-8-15 via TATA; N-terminus assumed
SMILES: CSCC[C@@H]1NC(=O)[C@@H]2CSCCC(=O)N3CN(CN(C3)C(=O)CCSC[C@@H](C(=O)N[C@@H](C)C(N)=O)NC(=O)[C@H](C(C)C)NC(=O)[C@H](CCCCN)NC(=O)CNC(=O)[C@H]([C@@H](C)O)NC(=O)[C@H](CC(C)C)NC1=O)C(=O)CCSC[C@H](NC(=O)[C@H](C)N)C(=O)N[C@@H](CC(N)=O)C(=O)N[C@@H](CC(C)C)C(=O)N[C@@H](CCC(N)=O)C(=O)N[C@@H](C)C(=O)N(C)CC(=O)N2
notes: scaffold TATA
In the case of B3, the dissociation constant (Kd) amounted to 2570 nM.
ACNLQAPCMLTGK[Tle]CA-NH2 (linker 2-8-15 via TATA, scaffold TATA) [BCY18325] gave a Kd of 854 nM.
ACDLTTHNCQWG[tBuAla]CA-NH2 (linker 2-9-14 via TATA, scaffold TATA) [BCY18290]: the affinity, expressed as Kd, was 4890 nM.
The molecule ACDLTTHNCQWG[Tle]CA-NH2 (linker 2-9-14 via TATA, scaffold TATA) [BCY18289] registered a Kd of 572 nM.

B4: BCY18288 (peptide)
peptide: ACDLTTHNCQ[Trp(1-Me)]GICA-NH2
modifications: linker 2-9-14 via TATA; N-terminus assumed
SMILES: CC[C@H](C)[C@@H]1NC(=O)CNC(=O)[C@H](Cc2cn(C)c3ccccc23)NC(=O)[C@H](CCC(N)=O)NC(=O)[C@@H]2CSCCC(=O)N3CN(CN(C3)C(=O)CCSC[C@@H](C(=O)N[C@@H](C)C(N)=O)NC1=O)C(=O)CCSC[C@H](NC(=O)[C@H](C)N)C(=O)N[C@@H](CC(=O)O)C(=O)N[C@@H](CC(C)C)C(=O)N[C@@H]([C@@H](C)O)C(=O)N[C@@H]([C@@H](C)O)C(=O)N[C@@H](Cc1c[nH]cn1)C(=O)N[C@@H](CC(N)=O)C(=O)N2
notes: scaffold TATA
B4 displayed a Kd of 354 nM. Against the preceding molecule, the Kd is about 1.6-fold lower.
Turning to Ac-ACNLQAPCMLTGKVCA-NH2 (linker 2-8-15 via TATA (inferred), scaffold TATA) [BCY18294], binding was characterised by a dissociation constant (Kd) of 3260 nM.
ACNLQAPCMLTGKVCA-NH2 (linker 2-8-15 via TATA; also: scaffold TATA, TATB or TBMT, scaffold TATA) [BCY15099] registered a Kd of 1120 nM.
Consider ACNLQAPCLLTGKVCA-NH2 (linker 2-8-15 via TATA; also: scaffold TATA, TATB or TBMT, scaffold TATA) [BCY18313], for which binding was characterised by a dissociation constant (Kd) of 2750 nM.
As to ACNLQAPCMLT[dA]KVCA-NH2 (linker 2-8-15 via TATA (inferred), scaffold TATA) [BCY18322], binding was put at a Kd of 466 nM.
ACNLQAPCMLTGRVCA-NH2 (linker 2-8-15 via TATA; also: scaffold TATA, TATB or TBMT, scaffold TATA) [BCY18323] came in with a dissociation constant (Kd) of 2340 nM.
Molecule ACNLQAPCMLTGKACA-NH2 (linker 2-8-15 via TATA; also: scaffold TATA, TATB or TBMT, scaffold TATA) [BCY18305] had a Kd of 907 nM. Against the preceding molecule, the Kd is about 2.6-fold lower.
For the molecule ACNLQAPCMLTAKVCA-NH2 (linker 2-8-15 via TATA; also: scaffold TATA, TATB or TBMT, scaffold TATA) [BCY18303], the Kd was determined as 2750 nM.
On to ACNLQAPCMFTGKVCA-NH2 (linker 2-8-15 via TATA; also: scaffold TATA, TATB or TBMT, scaffold TATA) [BCY18317], for which binding was put at a Kd of 2080 nM.
The molecule ACNLQAPCM[tBuAla]TGKVCA-NH2 (linker 2-8-15 via TATA, scaffold TATA) [BCY18320] gave a Kd of 622 nM.
On to ACNLQAPCM[Cha]TGKVCA-NH2 (linker 2-8-15 via TATA; also: Cha: filing contradicts itself on L or D, scaffold TATA) [BCY18321], for which the Kd was found to be 548 nM.
The molecule ACNLQA[cisHyp]CMLTGKVCA-NH2 (linker 2-8-15 via TATA, scaffold TATA) [BCY18310] had a dissociation constant (Kd) of 802 nM. This Kd and that of the molecule before are within 1.5-fold of each other.

B5: BCY18328 (peptide)
peptide: ACNLQAPCMLTG[hArg]VCA-NH2
modifications: linker 2-8-15 via TATA; N-terminus assumed
SMILES: CSCC[C@@H]1NC(=O)[C@@H]2CSCCC(=O)N3CN(CN(C3)C(=O)CCSC[C@@H](C(=O)N[C@@H](C)C(N)=O)NC(=O)[C@H](C(C)C)NC(=O)[C@H](CCCCNC(=N)N)NC(=O)CNC(=O)[C@H]([C@@H](C)O)NC(=O)[C@H](CC(C)C)NC1=O)C(=O)CCSC[C@H](NC(=O)[C@H](C)N)C(=O)N[C@@H](CC(N)=O)C(=O)N[C@@H](CC(C)C)C(=O)N[C@@H](CCC(N)=O)C(=O)N[C@@H](C)C(=O)N1CCC[C@H]1C(=O)N2
notes: scaffold TATA
Turning to B5, the dissociation constant (Kd) was found to be 887 nM.
Molecule ACNLQA[NMeA]CMLTGKVCA-NH2 (linker 2-8-15 via TATA, scaffold TATA) [BCY18312] registered a Kd of 1810 nM.

B6: BCY18315 (peptide)
peptide: ACNLQAPC[Cba]LTGKVCA-NH2
modifications: linker 2-8-15 via TATA; N-terminus assumed
SMILES: CC(C)C[C@@H]1NC(=O)[C@H](CC(N)=O)NC(=O)[C@@H](NC(=O)[C@H](C)N)CSCCC(=O)N2CN3CN(C2)C(=O)CCSC[C@H](NC(=O)[C@@H]2CCCN2C(=O)[C@H](C)NC(=O)[C@H](CCC(N)=O)NC1=O)C(=O)N[C@@H](CC1CCC1)C(=O)N[C@@H](CC(C)C)C(=O)N[C@@H]([C@@H](C)O)C(=O)NCC(=O)N[C@@H](CCCCN)C(=O)N[C@@H](C(C)C)C(=O)N[C@H](C(=O)N[C@@H](C)C(N)=O)CSCCC3=O
notes: scaffold TATA
Molecule B6 returned a dissociation constant Kd of 878 nM.
